Measured values from patent US12692524B2, “Sialyltransferases and their use in producing sialylated oligosaccharides” (Chr. Hansen A/S, priority 2017, dated 2026).

B1: SiaT16: sialyltransferase of Haemophilus ducreyi 35000HP, acc. AAP95068, SEQ ID NO: 27 (protein, listed as Haemophilus ducreyi)
chain: MLIQQNLEIYLDYATIPSLACFMHFIQHKDDVDSIRLFGLARFDIPQSIIDRYPANHLFYHNIDNRDLTAVLNQLADILAQENKRFQINLHLNLFHSIDLFFAIYPIYQQYQHKISTIQLQLYDDGSEGIVTQHSLCKIADLEQLILQHKNVLLELLTKGTANVPNPTLLRYLWNNIIDSQFHLISDHFLQHPKLQPLKRLLKRYTILDFTCYPRFNAEQKQLLKEILHISNELENLLKLLKQHNTFLFTGTTAFNLDQEKLDLLTQLHILLLNEHQNPHSTHYIGNNYLLLIKGHANSPALNHTLALHFPDAIFLPANIPFEIFAMLGFTPNKMGGFASTSYINYPTENINHLFFLTSDQPSIRTKWLDYEKQFGLMYSLLAMQKINEDQAFMCTIHN
B2: SiaT15: sialyltransferase of Haemophilus ducreyi 35000HP, acc. AF101047, SEQ ID NO: 14 (protein, listed as Haemophilus ducreyi)
chain: MKEIAIISNQRMFFLYCLLTNKNVEDVFFIFEKGAMPNNLTSISHFIVLDHSKSECYDFFYFNFISCKYRLRGLDVYGADHIKGAKFFLERHRFFVVEDGMMNYSKNMYAFSLFRTRNPVILPGGFHPNVKTIFLTKDNPIPDQIAHKREIINIKTLWQAKTATEKTKILSFFEIDMQEISVIKNRSFVLYTQPLSEDKLLTEAEKIDIYRTILTKYNHSQTVIKPHPRDKTDYKQLFPDAYVMKGTYPSELLTLLGVNFNKVITLFSTAVFDYPKEKIDFYGTAVHPKLLDFFD
B3: SiaT21: sialyltransferase of Vibrio harveyi, acc. WP_017817635, SEQ ID NO: 21 (protein, listed as Vibrio harveyi)
chain: MDSSPENTSSTLEIYIDSATLPSLQHMVKIIDEQSGNKKLINWKRYPIDDELLLDKINALSFSDTTDLTRYMESILLIGDIKRVVINGNSLSNYNIVGVMRSINALGLDLDVEINFYDDGSAEYVRLYNFSQLPEAERELLVSMSKNNILAAVNGIGSYDSGSPENIYGFAQIYPATYHMLRADIFDTDLEIGLIRDILGDNVKQMKWGQFLGFNEEQKELFYQLTSFNPDKIQAQYKESPNKNFVFVGTNSRSATAEQQINIIKEAKKLDSEIIPNSIDGYDLFFKGHPSATYNQQIVDAHDMTEIYNRTPFEVLAMTSSLPDAVGGMGSSLFFSLPKTVETKFIFYKSGTDIESNALIQVMLKLGIITDEKVRFTTDIK
B4: SiaT17: sialyltransferase of Photobacterium phosphoreum JT-ISH-467, acc. BAF63530, SEQ ID NO: 8 (protein, listed as Photobacterium phosphoreum)
chain: MGCNSDSKHNNSDGNITKNKTIEVYVDRATLPTIQQMTQIINENSNNKKLISWSRYPINDETLLESINGSFFKNRPELIKSLDSMILTNEIKKVIINGNTLWAVDVVNIIKSIEALGKKTEIELNFYDDGSAEYVRLYDFSRLPESEQEYKISLSKDNIQSSINGTQPFDNSIENIYGFSQLYPTTYHMLRADIFETNLPLTSLKRVISNNIKQMKWDYFTTFNSQQKNKFYNFTGFNPEKIKEQYKASPHENFIFIGTNSGTATAEQQIDILTEAKKPDSPIITNSIQGLDLFFKGHPSATYNQQIIDAHNMIEIYNKIPFEALIMTDALPDAVGGMGSSVFFSLPNTVENKFIFYKSDTDIENNALIQVMIELNIVNRNDVKLISDLQ

experiment: In vitro sialylation of LNT by protein extracts, LST-a/-b quantified by LC-MS/MS; assay type: biochemical; settings: 5 mM LNT, 10 mM CMP-Neu5Ac, 16 hours, LC-MS/MS; relative quantity; n.d.: not detectable
Description: Escherichia coli BL21(DE3) harbouring plamids encoding for 100 sialyltransferases were grown at 30° C. in 100 ml shake flasks filled with 20 ml of 2YT medium supplemented with ampicillin 100 μg ml^−1. When the cultures reached an OD600 of 0.1 to 0.3, gene expression was induced by addition of 0.3 mM IPTG and the incubation was continued for 12 to 16 hours. Cells were harvested by centrifugation and mechanically disrupted in a defined volume of 50 mM Tris-HCl pH7.5 using glass beads. The protein extract was kept on ice until the assay started. The in vitro assay was carried out in a total volume of 25 μl including 50 mM Tris-HCl pH7.5, 5 mM MgCl2, 10 mM CMP-Neu5Ac and 5 mM LNT. The assay started with the addition of 3 μl protein extract and continued for 16 hours. Product formation was determined by mass spectrometry.
Mass spectrometry analysis was performed by MRM (multiple reaction monitoring) using a LC Triple-Quadrupole MS detection system. Precursor ions are selected and analyzed in quadrupole 1, fragmentation takes place in the collision cell using argon as CID gas, selection of fragment ions is performed in quadrupole 3. Chromatographic separation of lactose, 3′-Sialyllactose and 6′-Sialyllactose after dilution of culture supernatant 1:100 with H2O (LC/MS Grade), was performed on a XBridge Amide HPLC column (3.5 μm, 2.1×50 mm (Waters, USA) with a XBridge Amide guard cartridge (3.5 μm, 2.1×10 mm) (Waters, USA). Column oven temperature of the HPLC system was 50° C. The mobile phase was composed of acetonitrile:H2O with 10 mM ammonium acetate. A 1 μl sample was injected into the instrument; the run was performed for 3.60 min with a flow rate of 400 μl/min. 3′-Sialyllactose and 6′-Sialyllactose were analyzed by MRM in ESI positive ionization mode. The mass spectrometer was operated at unit resolution. Sialyllactose forms an ion of m/z 656.2 [M+Na]. The precursor ion of Sialyllactose was further fragmented in the collision cell into the fragment ions m/z 612.15, m/z 365.15 and m/z 314.15. Collision energy, Q1 and Q3 Pre Bias were optimized for each analyte individually. Chromatographic separation of lactose, LNT-II, LNT and LST-a or -b after dilution of particle-free biocatalysis-reaction or crude extract, respectively, 1:50 with H2O (LC/MS Grade), was performed on a XBridge Amide HPLC column (3.5 μm, 2.1×50 mm (Waters, USA) with a XBridge Amide guard cartridge (3.5 μm, 2.1×10 mm) (Waters, USA). Column oven was run at 35° C. The mobile phase was composed of acetonitrile:H2O with 0.1% ammonium hydroxide. A 1 μl sample was injected into the instrument; the run was performed for 3.50 min with a flow rate of 300 μl/min. Lactose, LNT-II, LNT as well as LST-a and -b were analyzed by MRM in ESI negative ionization mode. The mass spectrometer was operated at unit resolution. Lactose forms an ion of m/z 341.00 [M−H]. The precursor ion of Lactose was further fragmented in the collision cell into the fragment ions m/z 179.15, m/z 161.15 and m/z 101.05. LNT-II forms an ion of m/z 544.20 [M−H]. The precursor ion of LNT-II was further fragmented into the fragment ions m/z 382.10, m/z 161.00 and m/z 112.90. LNT forms an ion of m/z 706.20 [M−H]. The precursor ion of LNT was further fragmented into the fragment ions m/z 382.10, m/z 202.10 and m/z 142.00. LST-a and -b forms an ion of m/z 997.20 [M−H]. The precursor ion of LST-a and-b was further fragmented into the fragment ions m/z 290.15, m/z 202.15 and m/z 142.15. Collision energy, Q1 and Q3 Pre Bias were optimized for each analyte individually. Quantification methods were established using commercially available standards (Carbosynth, Compton, UK).
Twenty eight genes were identified to produce LST-a whereas only 6 enzymes synthesized LST-b. […] Irrespectively of the protein overexpression level, sialyltransferases that produced best were selected for determination of Km and Vmax.

Row | Molecule | Relative efficacy of sialyltransferases regarding in-vitro production of sialyllacto-N-tetraoses: LST-a
1 | B1 | 1
2 | B2 | 204
3 | B3 | 12
4 | B4 | 1.24 × 10^3

experiment: In vivo screening in E. coli #1363/#1730 with lactose as acceptor, sialyllactose identified by TLC; assay type: cell-based, Escherichia coli BL21(DE3); settings: 1.5 mM lactose, 72 to 96 hours, qualitative via TLC
Description: Escherichia coli BL21(DE3) #1363 and #1730 harbouring plasmids encoding for 100 sialyltransferases were grown at 30° C. in 100 ml shake flasks filled with 20 ml of mineral salts medium (Samain et al., J. Biotech. 1999, 72:33-47) supplemented with 2% (wt/vol) glucose, ampicillin 100 μg ml^−1, kanamycin 15 μg ml^−1 and zeocin 40 μg ml^−1. When the cultures reached an OD600 of 0.1 to 0.3, gene expression was induced by addition of 0.3 mM IPTG. After an incubation for one hour, 1.5 mM lactose was added to #1363 cultures whereas 1.5 mM lactose as well as 1.5 mM sialic acid was added to #1730 cultures. The incubation continued for 72 to 96 hours. Then, cells were harvested by centrifugation and mechanically disrupted in a defined volume using glass beads. Subsequently, samples were applied to thin layer chromatography (TLC) on Silica Gel 60 F254 (Merck KGaA, Darmstadt, Germany). A mixture of butanol:acetone:acetic acid:H2O (35/35/7/23 (v/v/v/v)) was used as mobile phase. For detection of the separated substances, the TLC plate was soaked with thymol reagent (0.5 g thymol solved in 95 ml ethanol, 5 ml sulfuric acid added) and heated.
In the entire screening, thirty two genes were identified to encode for α-2,3-sialyltransferases, thus producing 3′-SL. 19 enzymes synthesized 6′-SL and were depicted as α-2,6-sialyltransferases. An α-2,3- as well as an α-2,6-sialyltransferase activity could only be observed for 3 enzymes. […] The screening appeared highly accurate since the described activities of extensively characterized sialyltransferases, e. g. […] Regarding the product formation, the experimental setting allowed a semi-quantitative comparison of the screened enzymes. But to achieve deeper knowledge about their kinetic properties, the 3 potentially best performing α-2,3- and α-2,6-sialyltransferases were applied to in vitro assays.

Row | Molecule | Production of sialyllactose in-vivo
5 | B1 | 3′-SL
6 | B2 | 3′-SL
7 | B3 | 3′-SL
8 | B4 | 3′-SL
